# Laboratory results reported in US20100099610.
# Legend:
# [1] = target: hGHQ141N, P01241
# [2] = target: hGHQ40N, P01241
# [3] = target: wild type human growth hormone, P01241
# wild type human growth hormone, P01241, sequence (P01241 27-217): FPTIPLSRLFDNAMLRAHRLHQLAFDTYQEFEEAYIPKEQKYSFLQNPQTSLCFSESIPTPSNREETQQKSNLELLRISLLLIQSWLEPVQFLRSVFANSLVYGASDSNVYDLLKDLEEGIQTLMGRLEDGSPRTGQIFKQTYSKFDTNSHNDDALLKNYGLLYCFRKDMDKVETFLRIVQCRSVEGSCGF
# hGHQ141N, P01241, sequence (P01241 27-217 Q167N): as the sequence (P01241 27-217) above, with Q141N counted along it
# hGHQ40N, P01241, sequence (P01241 27-217 Q66N): as the sequence (P01241 27-217) above, with Q40N counted along it
protein,measurement,setting,value
Met-mTGase from S. ladakanum (protein) MDSDERVTPPAEPLDRMPDPYRPSYGRAETIVNNYIRKWQQVYSHRDGRKQQMTEEQREWLSYGCVGVTWVNSGQYPTNRLAFAFFDEDKYKNELKNGRPRSGETRAEFEGRVAKDSFDEAKGFQRARDVASVMNKALENAHDEGAYLDNLKKELANGNDALRNEDARSPFYSALRNTPSFKDRNGGNHDPSKMKAVIYSKHFWSGQDRSGSSDKRKYGDPEAFRPDRGTGLVDMSRDRNIPRSPTSPGESFVNFDYGWFGAQTEADADKTVWTHGNHYHAPNGSLGAMHVYESKFRNWSDGYSDFDRGAYVVTFVPKSWNTAPDKVKQGWP,"Activity (RFU/sec/µg), dansyl-cadaverine fluorescence kinetics",[1],0.8 RFU/sec/µg
same,"Activity towards hGHQ40N (RFU/sec/µg), dansyl-cadaverine fluorescence kinetics",[2],4.74 RFU/sec/µg
mTGase from Streptomyces mobaraensis (protein) DSDDRVTPPAEPLDRMPDPYRPSYGRAETVVNNYIRKWQQVYSHRDGRKQQMTEEQREWLSYGCVGVTWVNSGQYPTNRLAFASFDEDRFKNELKNGRPRSGETRAEFEGRVAKESFDEEKGFQRAREVASVMNRALENAHDESAYLDNLKKELANGNDALRNEDARSPFYSALRNTPSFKERNGGNHDPSRMKAVIYSKHFWSGQDRSSSADKRKYGDPDAFRPAPGTGLVDMSRDRNIPRSPTSPGEGFVNFDYGWFGAQTEADADKTVWTHGNHYHAPNGSLGAMHVYESKFRNWSEGYSDFDRGAYVITFIPKSWNTAPDKVKQGWP,"Activity (RFU/sec/µg), dansyl-cadaverine fluorescence kinetics",[1],0.98 RFU/sec/µg
same,"HPLC peak area of product-Q40 (FIG. 4, bottom)",[1],"The first peak (19.5 min, area 296) is product-Q40"
same,"product-Q40 after 30 minutes, FPLC areas normalized to 100 (normalized to 100)",[1],19
same,"Activity towards hGHQ40N (RFU/sec/µg), dansyl-cadaverine fluorescence kinetics",[2],3.35 RFU/sec/µg
same,"HPLC peak area of product-Q141 (FIG. 4, top)",[2],"The first peak (26.9 min, area 1283) is product-Q141"
same,"product-Q141 after 30 minutes, FPLC areas normalized to 100 (normalized to 100)",[2],71
AlaPro-mTGase from S. mobaraensis (protein) APDSDDRVTPPAEPLDRMPDPYRPSYGRAETVVNNYIRKWQQVYSHRDGRKQQMTEEQREWLSYGCVGVTWVNSGQYPTNRLAFASFDEDRFKNELKNGRPRSGETRAEFEGRVAKESFDEEKGFQRAREVASVMNRALENAHDESAYLDNLKKELANGNDALRNEDARSPFYSALRNTPSFKERNGGNHDPSRMKAVIYSKHFWSGQDRSSSADKRKYGDPDAFRPAPGTGLVDMSRDRNIPRSPTSPGEGFVNFDYGWFGAQTEADADKTVWTHGNHYHAPNGSLGAMHVYESKFRNWSEGYSDFDRGAYVITFIPKSWNTAPDKVKQGWP,"Activity (RFU/sec/µg), dansyl-cadaverine fluorescence kinetics",[1],1.56 RFU/sec/µg
same,"Activity towards hGHQ40N (RFU/sec/µg), dansyl-cadaverine fluorescence kinetics",[2],5.05 RFU/sec/µg
same,conversion rate by CE (FIG. 2B); reaction time 30 minutes,[3],conversion rate=32%
same,"hGH conv. rate (%) by CE, reference of the separate experiment; reaction time 45 m, enzyme 4.6 µg/ml",[3],39%
same,"hGH conv. rate (%) by CE; reaction time 30 m, enzyme 9.6 µg/ml",[3],33%
GlyPro-mTGase from S. mobaraensis (protein) GPDSDDRVTPPAEPLDRMPDPYRPSYGRAETVVNNYIRKWQQVYSHRDGRKQQMTEEQREWLSYGCVGVTWVNSGQYPTNRLAFASFDEDRFKNELKNGRPRSGETRAEFEGRVAKESFDEEKGFQRAREVASVMNRALENAHDESAYLDNLKKELANGNDALRNEDARSPFYSALRNTPSFKERNGGNHDPSRMKAVIYSKHFWSGQDRSSSADKRKYGDPDAFRPAPGTGLVDMSRDRNIPRSPTSPGEGFVNFDYGWFGAQTEADADKTVWTHGNHYHAPNGSLGAMHVYESKFRNWSEGYSDFDRGAYVITFIPKSWNTAPDKVKQGWP,"Activity (RFU/sec/µg), dansyl-cadaverine fluorescence kinetics",[1],1.13 RFU/sec/µg
same,"Activity towards hGHQ40N (RFU/sec/µg), dansyl-cadaverine fluorescence kinetics",[2],4.28 RFU/sec/µg
AlaPro-mTGase from S. ladakanum (protein) APDSDERVTPPAEPLDRMPDPYRPSYGRAETIVNNYIRKWQQVYSHRDGRKQQMTEEQREWLSYGCVGVTWVNSGQYPTNRLAFAFFDEDKYKNELKNGRPRSGETRAEFEGRVAKDSFDEAKGFQRARDVASVMNKALENAHDEGAYLDNLKKELANGNDALRNEDARSPFYSALRNTPSFKDRNGGNHDPSKMKAVIYSKHFWSGQDRSGSSDKRKYGDPEAFRPDRGTGLVDMSRDRNIPRSPTSPGESFVNFDYGWFGAQTEADADKTVWTHGNHYHAPNGSLGAMHVYESKFRNWSDGYSDFDRGAYVVTFVPKSWNTAPDKVKQGWP,"Activity (RFU/sec/µg), dansyl-cadaverine fluorescence kinetics",[1],1.02 RFU/sec/µg
same,"Activity towards hGHQ40N (RFU/sec/µg), dansyl-cadaverine fluorescence kinetics",[2],6.91 RFU/sec/µg
GlyPro-mTGase_Y62H_Y75F from S. ladakanum (protein) GPDSDERVTPPAEPLDRMPDPYRPSYGRAETIVNNYIRKWQQVYSHRDGRKQQMTEEQREWLSHGCVGVTWVNSGQFPTNRLAFAFFDEDKYKNELKNGRPRSGETRAEFEGRVAKDSFDEAKGFQRARDVASVMNKALENAHDEGAYLDNLKKELANGNDALRNEDARSPFYSALRNTPSFKDRNGGNHDPSKMKAVIYSKHFWSGQDRSGSSDKRKYGDPEAFRPDRGTGLVDMSRDRNIPRSPTSPGESFVNFDYGWFGAQTEADADKTVWTHGNHYHAPNGSLGAMHVYESKFRNWSDGYSDFDRGAYVVTFVPKSWNTAPDKVTQGWP,"RS (relative selectivity against AlaPro-mTGase from S. mobaraensis), separate experiment",[3],7.6
same,"Selectivity (Q141/Q40) by CE, separate experiment; reaction time 60 m, enzyme 8.8 µg/ml",[3],76.5
same,"hGH conv. rate (%) by CE, separate experiment; reaction time 60 m, enzyme 8.8 µg/ml",[3],38.1%
same,"hGH conv. rate (%) by CE; reaction time 120 m, enzyme 7 µg/ml",[3],49.4%
GlyPro-mTGase_Y62H_Y75N from S. ladakanum (protein) GPDSDERVTPPAEPLDRMPDPYRPSYGRAETIVNNYIRKWQQVYSHRDGRKQQMTEEQREWLSHGCVGVTWVNSGQNPTNRLAFAFFDEDKYKNELKNGRPRSGETRAEFEGRVAKDSFDEAKGFQRARDVASVMNKALENAHDEGAYLDNLKKELANGNDALRNEDARSPFYSALRNTPSFKDRNGGNHDPSKMKAVIYSKHFWSGQDRSGSSDKRKYGDPEAFRPDRGTGLVDMSRDRNIPRSPTSPGESFVNFDYGWFGAQTEADADKTVWTHGNHYHAPNGSLGAMHVYESKFRNWSDGYSDFDRGAYVVTFVPKSWNTAPDKVKQGWP,"hGH conv. rate (%) by CE; reaction time 75 m, enzyme 34.5 µg/ml",[3],38%
GlyPro-mTGase_Y75N from S. ladakanum (protein) GPDSDERVTPPAEPLDRMPDPYRPSYGRAETIVNNYIRKWQQVYSHRDGRKQQMTEEQREWLSYGCVGVTWVNSGQNPTNRLAFAFFDEDKYKNELKNGRPRSGETRAEFEGRVAKDSFDEAKGFQRARDVASVMNKALENAHDEGAYLDNLKKELANGNDALRNEDARSPFYSALRNTPSFKDRNGGNHDPSKMKAVIYSKHFWSGQDRSGSSDKRKYGDPEAFRPDRGTGLVDMSRDRNIPRSPTSPGESFVNFDYGWFGAQTEADADKTVWTHGNHYHAPNGSLGAMHVYESKFRNWSDGYSDFDRGAYVVTFVPKSWNTAPDKVKQGWP,"hGH conv. rate (%) by CE; reaction time 120 m, enzyme 6.5 µg/ml",[3],44%
same,hGH conversion rate by CE (FIG. 2F); reaction time 90 m,[3],hGH conversion rate=50%
GlyPro-mTGase from S. ladakanum (protein) GPDSDERVTPPAEPLDRMPDPYRPSYGRAETIVNNYIRKWQQVYSHRDGRKQQMTEEQREWLSYGCVGVTWVNSGQYPTNRLAFAFFDEDKYKNELKNGRPRSGETRAEFEGRVAKDSFDEAKGFQRARDVASVMNKALENAHDEGAYLDNLKKELANGNDALRNEDARSPFYSALRNTPSFKDRNGGNHDPSKMKAVIYSKHFWSGQDRSGSSDKRKYGDPEAFRPDRGTGLVDMSRDRNIPRSPTSPGESFVNFDYGWFGAQTEADADKTVWTHGNHYHAPNGSLGAMHVYESKFRNWSDGYSDFDRGAYVVTFVPKSWNTAPDKVKQGWP,"Activity (RFU/sec/µg), dansyl-cadaverine fluorescence kinetics",[1],0.48 RFU/sec/µg
same,"Activity towards hGHQ40N (RFU/sec/µg), dansyl-cadaverine fluorescence kinetics",[2],4.25 RFU/sec/µg
same,"hGH conv. rate (%) by CE; reaction time 15 m, enzyme 16 µg/ml",[3],55%
GlyPro-mTGase_Y75F from S. ladakanum (protein) GPDSDERVTPPAEPLDRMPDPYRPSYGRAETIVNNYIRKWQQVYSHRDGRKQQMTEEQREWLSYGCVGVTWVNSGQFPTNRLAFAFFDEDKYKNELKNGRPRSGETRAEFEGRVAKDSFDEAKGFQRARDVASVMNKALENAHDEGAYLDNLKKELANGNDALRNEDARSPFYSALRNTPSFKDRNGGNHDPSKMKAVIYSKHFWSGQDRSGSSDKRKYGDPEAFRPDRGTGLVDMSRDRNIPRSPTSPGESFVNFDYGWFGAQTEADADKTVWTHGNHYHAPNGSLGAMHVYESKFRNWSDGYSDFDRGAYVVTFVPKSWNTAPDKVKQGWP,"hGH conv. rate (%) by CE; reaction time 60 m, enzyme 12.9 µg/ml",[3],41%
same,hGH conversion rate by CE (FIG. 2E); reaction time 75 m,[3],hGH conversion rate=33%
Met-mTGase from S. mobaraensis (protein) MDSDDRVTPPAEPLDRMPDPYRPSYGRAETVVNNYIRKWQQVYSHRDGRKQQMTEEQREWLSYGCVGVTWVNSGQYPTNRLAFASFDEDRFKNELKNGRPRSGETRAEFEGRVAKESFDEEKGFQRAREVASVMNRALENAHDESAYLDNLKKELANGNDALRNEDARSPFYSALRNTPSFKERNGGNHDPSRMKAVIYSKHFWSGQDRSSSADKRKYGDPDAFRPAPGTGLVDMSRDRNIPRSPTSPGEGFVNFDYGWFGAQTEADADKTVWTHGNHYHAPNGSLGAMHVYESKFRNWSEGYSDFDRGAYVITFIPKSWNTAPDKVKQGWP,"Activity (RFU/sec/µg), dansyl-cadaverine fluorescence kinetics",[1],1.24 RFU/sec/µg
same,"Activity towards hGHQ40N (RFU/sec/µg), dansyl-cadaverine fluorescence kinetics",[2],5.44 RFU/sec/µg
Mature mTGase from Streptoverticillium ladakanum (protein) DSDERVTPPAEPLDRMPDPYRPSYGRAETIVNNYIRKWQQVYSHRDGRKQQMTEEQREWLSYGCVGVTWVNSGQYPTNRLAFAFFDEDKYKNELKNGRPRSGETRAEFEGRVAKDSFDEAKGFQRARDVASVMNKALENAHDEGAYLDNLKKELANGNDALRNEDARSPFYSALRNTPSFKDRNGGNHDPSKMKAVIYSKHFWSGQDRSGSSDKRKYGDPEAFRPDRGTGLVDMSRDRNIPRSPTSPGESFVNFDYGWFGAQTEADADKTVWTHGNHYHAPNGSLGAMHVYESKFRNWSDGYSDFDRGAYVVTFVPKSWNTAPDKVKQGWP,"Activity (RFU/sec/µg), dansyl-cadaverine fluorescence kinetics",[1],0.63 RFU/sec/µg
same,"HPLC peak area of product-Q40 (FIG. 3, bottom)",[1],"The first peak (19.2 min, area 127) is product-Q40"
same,"product-Q40 after 30 minutes, FPLC areas normalized to 100 (normalized to 100)",[1],10
same,"Activity towards hGHQ40N (RFU/sec/µg), dansyl-cadaverine fluorescence kinetics",[2],3.55 RFU/sec/µg
same,"HPLC peak area of product-Q141 (FIG. 3, top)",[2],"The first peak (26.5 min, area 1238) is product-Q141"
same,"product-Q141 after 30 minutes, FPLC areas normalized to 100 (normalized to 100)",[2],77
